In publication PMC9482650, “Quantitative fragmentomics allow affinity mapping of interactomes” (Nature Communications, 2022):

Legend:
Test in all cases: holdup assay
Parameters in all cases: key: below the threshold = too weak to quantify, mostly under pKd 3.1 to 4
Conditions in all cases: plain residues with an end cap or a label only (N-terminal biotin on a linker: ttds)
PTPN13_2, Q12923 = molecular target: PTPN13_2, Q12923
LNX2_1, Q8N448 = molecular target: T1, LNX2_1, Q8N448
T1 sequence (Q8N448 228-328, limits assumed, looked up): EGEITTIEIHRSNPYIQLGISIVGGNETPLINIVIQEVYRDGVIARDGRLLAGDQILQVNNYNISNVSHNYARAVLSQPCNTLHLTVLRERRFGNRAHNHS

Q92614 = molecular target: Q92614
Q9Y3R0 = molecular target: Q9Y3R0
Q8TEW0 = molecular target: Q8TEW0
O43166 = molecular target: O43166
Q12923 = molecular target: Q12923
Q6ZWJ1 = molecular target: Q6ZWJ1
Q8TDM6 = molecular target: Q8TDM6
Q9H190 = molecular target: Q9H190
Q9NR12 = molecular target: Q9NR12
Q96JB8 = molecular target: Q96JB8
Q70Z35 = molecular target: Q70Z35
Q9UMS6 = molecular target: Q9UMS6
Q9ULJ8 = molecular target: Q9ULJ8
Q96HC4 = molecular target: Q96HC4
Q13368 = molecular target: Q13368
Q13009 = molecular target: Q13009
O60759 = molecular target: O60759
Q9C0E4 = molecular target: Q9C0E4
Q8IUC4 = molecular target: Q8IUC4
O75970 = molecular target: O75970
Q9UDY2 = molecular target: Q9UDY2
Q5TCQ9 = molecular target: Q5TCQ9
O15021 = molecular target: O15021
O00560 = molecular target: O00560
Q96SB3 = molecular target: Q96SB3
Q9P227 = molecular target: Q9P227

Measured: pKd

Sequence of PTPN13_2, Q12923 (Q12923 1363-1462): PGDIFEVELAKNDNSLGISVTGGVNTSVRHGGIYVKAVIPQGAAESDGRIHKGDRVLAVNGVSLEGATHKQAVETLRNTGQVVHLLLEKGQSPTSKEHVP

SGGKRKETLV [NET1, Q7Z628]
below the threshold: PTPN13_2, Q12923 | LNX2_1, Q8N448

KLVIKTETTV [RASSF6, Q6ZTQ3]
not listed: LNX2_1, Q8N448 | Q96SB3 | Q9P227
below the threshold: all other assays above

SHSSKGETAV [FZD7, O75084]
not listed: LNX2_1, Q8N448
below the threshold: all other assays above

PPRQRSETQV [HPV82-E6, Q9IR59]
not listed: LNX2_1, Q8N448
below the threshold: all other assays above

SSIDLWETAL [SLC15A5, A6NIM6]
not listed: PTPN13_2, Q12923 | LNX2_1, Q8N448
below the threshold: all other assays above

PSRDRKETSI [RALBP1, Q15311]
3.79: PTPN13_2, Q12923
not listed: LNX2_1, Q8N448 | Q96SB3
below the threshold: all other assays above
